The target of one assay is T1, HVISTA.
T1 construct: unrelated control antigen; also called human B7-H5/Gi24/VISTA protein (Sino Biological; Cat. No. 13482-H08H); not shown: the vendor's polyhistidine tag
In words: ELISA on coated antigen (0.25 µg/ml), HRP anti-human IgG Fc, OD450. From the text: (§1) All of the recombinant human CEACAM-1/CD66a protein (R&D systems; Cat No. 2244-CM, HCCM1), recombinant human CEACAM-5/CD66e protein (R&D systems; Cat. No. 4128-CM, HCCM5), recombinant human CEACAM-6/CD66c protein (R&D systems; Cat. No. 3934-CM, HCCM6), recombinant human CEACAM-3/CD66d protein (Sino Biological; Cat. No. 11933-H08H, HCCM3), human B7-H5/Gi24/VISTA protein (Sino Biological; Cat. No. 13482-H08H, HVISTA), recombinant human CEACAM-1/CD66a protein Bulk (R&D systems; Cat. No. 2244-CM, HCCM1 (bulk)), recombinant human CEACAM1-N domain-Kappa protein (Mogam, in-house production, HCCM1-N domain-kappa), and BSA protein (2.5 μg each) were dissolved in 10 ml of PBS, respectively, and dispensed into a 96-well plate at 100 μl/well, which was incubated at 4° C. overnight. Thereafter, each well was treated with 300 μl of 1% (v/v) bovine serum albumin, and incubated at 37° C. for 1 hour.
(§2) The diluted antibodies were dispensed into each well coated with each protein at 100 μl/well, and incubated at 37° C. for 1 hour. Then, each well was washed 3 times with a washing buffer prepared by diluting 10 μl of Tween 20 (Sigma-Aldrich; Cat. No. P9146) in 990 μl of PBS. Thereafter, 2 μl of HRP-conjugated human anti-IgG-Fc antibody (anti-human IgG Fc, Sigma Cat. No. A0170) was diluted in 10 ml of PBS, added to the wells at 100 μl/well, and incubated for 1 hour.
(§3) After completion of the reaction, the wells were washed three times with the washing buffer, and 100 μl of TMB solution was added to each well to induce color development. Then, 100 μl of 2 M H₂SO₄ was added to each well to stop the reaction, and the absorbance was measured at a wavelength of 450 nm.
In general terms: ELISA stands for enzyme-linked immunosorbent assay.

The target in the next assay is T2, BSA (bovine, UniProt P02769).
T2 construct: blank antigen; also called BSA protein; bovine serum albumin
T2 sequence (P02769 25-607 limits assumed): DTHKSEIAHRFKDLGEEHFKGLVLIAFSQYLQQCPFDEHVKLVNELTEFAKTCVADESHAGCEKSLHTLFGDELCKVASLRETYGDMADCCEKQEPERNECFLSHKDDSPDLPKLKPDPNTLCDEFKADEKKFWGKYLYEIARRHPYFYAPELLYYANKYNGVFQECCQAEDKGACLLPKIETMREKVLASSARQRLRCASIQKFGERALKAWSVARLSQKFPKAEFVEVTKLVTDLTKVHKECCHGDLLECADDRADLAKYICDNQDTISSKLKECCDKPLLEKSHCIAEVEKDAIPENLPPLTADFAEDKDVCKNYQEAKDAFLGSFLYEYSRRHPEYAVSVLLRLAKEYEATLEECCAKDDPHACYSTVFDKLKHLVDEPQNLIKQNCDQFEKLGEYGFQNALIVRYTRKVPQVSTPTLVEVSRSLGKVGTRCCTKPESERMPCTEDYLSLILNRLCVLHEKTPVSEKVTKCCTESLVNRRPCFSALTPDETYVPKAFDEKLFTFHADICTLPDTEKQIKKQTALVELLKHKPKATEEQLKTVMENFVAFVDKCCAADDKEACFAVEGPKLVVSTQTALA
The description is as above.
Source text: as §1, §2, §3

In assay [1] the target is T3, recombinant human CEACAM-6/CD66c protein (R&D systems; Cat. No. 3934-CM) (human, UniProt P40199 35-320).
T3 construct: Bought protein; also called HCCM6
T3 sequence (looked up): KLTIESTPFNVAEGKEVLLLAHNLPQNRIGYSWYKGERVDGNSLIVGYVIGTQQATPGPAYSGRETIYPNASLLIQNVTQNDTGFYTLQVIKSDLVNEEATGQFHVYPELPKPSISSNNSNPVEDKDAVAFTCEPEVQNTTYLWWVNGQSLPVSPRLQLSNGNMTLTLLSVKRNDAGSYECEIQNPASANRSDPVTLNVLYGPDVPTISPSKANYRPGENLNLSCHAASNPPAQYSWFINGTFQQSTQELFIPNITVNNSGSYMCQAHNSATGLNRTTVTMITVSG
Put plainly: ELISA on coated antigen (0.25 µg/ml), HRP anti-human IgG Fab, OD450.
Source text: (§4) All of the recombinant human CEACAM-1/CD66a protein (R&D systems; Cat. No. 2244-CM, HCCM1), recombinant human CEACAM-5/CD66e protein (R&D systems; Cat. No. 4128-CM, HCCM5), recombinant human CEACAM-6/CD66c protein (R&D systems; Cat. No. 3934-CM, HCCM6), recombinant human CEACAM-3/CD66d protein (Sino Biological; Cat. No. 11933-H08H, HCCM3), recombinant mouse PD-1 Fc chimeric protein (R&D systems; Cat. No. 1021-PD, mPD-1-Fc), recombinant CEACAM1-Fc (IgG4) protein (Mogam, in-house production, HCCM1-Fc), recombinant human CEACAM-1/CD66a protein Bulk (R&D systems; Cat. No. 2244-CM, HCCM1 (bulk)) and mouse CEACAM1/CD66a protein (Sino Biological; Cat. No. 50571-M08H, mouse CCM1) (2.5 μg each) were dissolved in 10 ml of PBS, respectively and dispensed into a 96-well plate (Nunc; Cat. No. 467679) at 100 μl/well, which was incubated overnight at 4° C. Thereafter, each well was treated with 300 μl of 1% (v/v) bovine serum albumin, which was incubated at 37° C. for 1 hour.
(§5) The diluted antibodies were dispensed into each well coated with each protein at 100 μl/well, which was incubated at 37° C. for 1 hour. Then, each well was washed 3 times with a washing buffer prepared by diluting 10 μl of Tween 20 (Sigma-Aldrich; Cat. No. P9146) in 990 μl of PBS. Thereafter, 2 μl of HRP-conjugated human anti-IgG-Fab antibody (anti-human IgG Fab; Sigma; Cat. No. A0293) was diluted in 10 ml of PBS, added to the wells at 100 μl/well, and incubated for 1 hour.
as §3

For another assay, the target named is T4, mCCM1.
T4 construct: also called mouse CCM1; mouse CEACAM1/CD66a protein (Sino Biological); not shown: the vendor's polyhistidine tag
T4 chain: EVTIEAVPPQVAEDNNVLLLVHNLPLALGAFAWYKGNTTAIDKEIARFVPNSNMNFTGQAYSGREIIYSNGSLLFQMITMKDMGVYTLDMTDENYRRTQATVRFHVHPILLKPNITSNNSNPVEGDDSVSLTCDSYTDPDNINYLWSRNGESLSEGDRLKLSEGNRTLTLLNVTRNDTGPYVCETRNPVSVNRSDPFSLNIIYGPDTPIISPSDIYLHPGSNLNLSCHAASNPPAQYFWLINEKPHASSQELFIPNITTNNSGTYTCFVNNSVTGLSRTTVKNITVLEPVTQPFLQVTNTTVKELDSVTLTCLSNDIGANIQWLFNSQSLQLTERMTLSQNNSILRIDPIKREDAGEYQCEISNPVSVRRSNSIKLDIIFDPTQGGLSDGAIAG
The description is as above.
Source text: as §4, §5, §3

T1 sequence (chain, as listed by the source limits assumed): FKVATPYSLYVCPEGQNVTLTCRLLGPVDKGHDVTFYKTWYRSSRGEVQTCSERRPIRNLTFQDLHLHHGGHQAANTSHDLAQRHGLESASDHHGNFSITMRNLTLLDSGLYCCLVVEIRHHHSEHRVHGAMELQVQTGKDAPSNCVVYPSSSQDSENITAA

B1: C18 (antibody, human IgG4 S228P, lambda, V domains shown)
VH: EVQLLESGGGLVQPGGSLRLSCAASGFTFSNYDMSWVRQAPGKGLEWVSGISHSSGSKYYADSVKGRFTISRDNSKNTLYLQMNSLRAEDTAVYYCARDPLPCLIPKCSYYYAMDVWGQGTLVTVSS
VL: QSVLTQPPSAPGTPGQRVTISCSGSSSNIGSNAVTWYQQLPGTAPKLLIYADSHRPSGVPDRFSGSKSGTSASLAISGLRSEDEADYYCGSWDDSLNAYVFGGGTKLTVLG
With B1, the binding result (with HVISTA; with BSA; in assay [1]; in the assay with mCCM1) was “no binding (tested: 3 µg/ml (single concentration))” throughout.

B2: C25 (antibody, human IgG4 S228P, lambda, V domains shown)
VH: EVQLLESGGGLVQPGGSLRLSCAASGFTFSNYAMSWVRQAPGKGLEWVSVISHGGGSIYYADSVKGRLTISRDNSKNTLYLQMNSLRAEDTAVYYCARDPTKGYAPTFDYWGQGTLVTVSS
VL: QSVLTQPPSASGTPGQRVTISCSGSSSNIGNNYVSWYQQLPGTAPKLLIYADSKRPSGVPDRFSGSKSGTSASLAISGLRSEDEADYYCGAWDASLNGYVFGGGTKLTVLG
notes: Made in ExpiHEK293F cells, protein A purified. huIgG4 is the isotype control and anti-huIgG4 the detection reagent; the isotype is not otherwise stated; also called anti-CEACAM1 antibody C25
Turning to B2, the binding result (with HVISTA; in the assay with BSA; in assay [1]; with mCCM1) was “no binding (tested: 3 µg/ml (single concentration))” each time.

B3: C26 (antibody, human IgG4 S228P, lambda, V domains shown)
VH: EVQLLESGGGLVQPGGSLRLSCAASGFTFSGYDMSWVRQAPGKGLEWVSWISYGGGSIYYADSVKGRFTISRDNSKNTLYLQMNSLRAEDTAVYYCAKDRLPQKAVRHSYANGMDVWGQGTLVTVSS
VL: QSVLTQPPSASGTPGQRVTISCSGSSSNIGNNYVTWYQQLPGTAPKLLIYADSHRPSGVPDRFSGSKSGTSASLAISGLRSEDEADYYCGAWDYSLSGYVFGGGTKLTVLG
Regarding B3, the binding result (with HVISTA; in the assay with BSA; in assay [1]; with mCCM1) was “no binding (tested: 3 µg/ml (single concentration))” throughout.

B4: C17 (antibody, human IgG4 S228P, lambda, V domains shown)
VH: EVQLLESGGGLVQPGGSLRLSCAASGFTFSDYSMSWVRQAPGKGLEWVSVIYPDDGNTYYADSVKGRFTISRDNSKNTLYLQMNSLRAEDTAVYYCARGSIWWLSLIPSSYNAMDVWGQGTLVAVSS
VL: QSVLTQPPSASGTPGQRVTISCSGSSSNIGNNAVNWYQQLPGTAPKLLIYANSHRPSGVPDRFSGSKSGTSASLAISGLRSEDEADYYCGAWDASLNGYVFGGGTKLTVLG
Consider B4, for which the binding result (in the assay with HVISTA; with BSA; in assay [1]; with mCCM1) was “no binding (tested: 3 µg/ml (single concentration))” throughout.

B5: C22 (antibody, human IgG4 S228P, lambda, V domains shown)
VH: EVQLLESGGGLVQPGGSLRLSCAASGFTFSDYDMSWVRQAPGKGLEWVSMIYSGSSSKYYADSVKGRFTISRDNSKNTLYLQMNSLRAEDTAVYYCAKAPLPFYFRPKSYYYAMDVWGQGTLVTVSS
VL: QSVLTQPPSASGTPGQRVTISCSGSSSNIGSNNVTWYQQLPGTAPKLLIYANSHRPSGVPDRFSGSKSGTSASLAISGLRSEDEADYYCGSWDSSLNAYVFGGGTKLTVLG
B5: the binding result (in the assay with HVISTA; with BSA; in assay [1]; with mCCM1) was “no binding (tested: 3 µg/ml (single concentration))” in each case.

B6: C15 (antibody, human IgG4 S228P, lambda, V domains shown)
VH: EVQLLESGGGLVQPGGSLRLSCAASGFTFSSYSMSWVRQAPGKGLEWVSSISPNGGNKYYADSVKGRFTISRDNSKNTLYLQMNSLGAEDTAVYYCAKDPYNIYQPLFDYWGQGTLVTVSS
VL: QSVLTQPLSASGTPGQRVTISCSGSSSNIGNNYVNWYQQLPGTAPKLLIYANSNRPSGVPDRFSGSKSGTSASLAISGLRSEEEADYYCGTWDASLSAYVFGGGTKLTVLG
Turning to B6, the binding result (with HVISTA; with BSA; in assay [1]; with mCCM1) was “no binding (tested: 3 µg/ml (single concentration))” each time.

B7: C19 (antibody, human IgG4 S228P, lambda, V domains shown)
VH: EVQLLESGGGLVQPGGSLRLSCAASGFTFSGYAMSWVRQAPGKGLEWVSGIYHDGGSTYYADSVKGRFTISRDNSKNTLYLQMNSLRAEDTAVYYCARVTVLCTTYGCSSYDGMDVWGQGTLVTVSS
VL: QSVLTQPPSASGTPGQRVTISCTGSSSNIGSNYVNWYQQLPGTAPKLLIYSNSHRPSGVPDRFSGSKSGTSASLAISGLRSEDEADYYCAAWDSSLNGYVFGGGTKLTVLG
Turning to B7, the binding result (with HVISTA; with BSA; in assay [1]; in the assay with mCCM1) was “no binding (tested: 3 µg/ml (single concentration))” in each case.

Values taken from US20200109196A1 (MOGAM INSTITUTE FOR BIOMEDICAL RESEARCH, published 2020).
